Data on one substance can be found in PMC6445550.

A word on the Km: it is the substrate concentration at which the rate is half of its maximum.

In the data set the test system is CCCCCCCCCCCCCCCC(=O)SCCNC(=O)CCNC(=O)[C@H](O)C(C)(C)COP(=O)(O)OP(=O)(O)OC[C@H]1O[C@@H](n2cnc3c(N)ncnc32)[C@H](O)[C@@H]1OP(=O)(O)O. Put plainly: purified protein.

As for zDHHC9 (Homo sapiens), the Km came to 45 ± 4 µM.
